Assay results published in patent publication US9066906B2, “Lunasin-containing complex and purification of lunasin from plants” (University of Louisville Research Foundation, Inc., priority 2009, dated 2015).
“Also recorded” adds a separate entry of the source.

B1: lunasin-containing complex: lunasin polypeptide of SEQ ID NO: 2 linked by disulfide bridges to a second polypeptide of SEQ ID NO: 3, 14.1 kDa, from soybean (protein)
chain 1: SKWQHQQDSCRKQLQGVNLTPCEKHIMEKIQGRGDDDDDDDDDN
chain 2: EGKDEDEEEEGHMQKCCTEMSELRSPKCQCKALQKIMENQSEELEEKQKKKMEKELINLATMCRFGPMIQCDLSSDD
modifications: disulfide-linked complex; Glycine max

Legend:
[1] = test system: SK-BR-3 human breast cancer cells; assay: MTS cell proliferation assay, lunasin in combination with curcumin; format: cell-based; details: FIG. 7; for effect on the antiproliferative effect of curcumin: SK-BR-3 breast cancer cells, in combination with curcumin
Procedure: FIGS. 7A and 7B include the results of MTS cell proliferation assays, using SK-BR-3 human breast cancer cells, performed in the absence or presence of either synthetic lunasin or purified soybean-derived lunasin in combination with curcumin over a 1-3 day period.
MTS cell proliferation assays using SK-BR-3 human breast cancer cells were performed in the absence or presence of either synthetic lunasin or purified soybean-derived lunasin in combination with curcumin over a 2-3 day period. SK-BR-3 cells, whose growth were unaffected by lunasin alone, were inhibited up to 98% when combined with curcumin.
With reference to FIG. 7, synthetic lunasin and highly purified soybean-derived lunasin were used in combination with curcumin in an in vitro cell proliferation assays to assess the activity of lunasin against specific cancer cell lines.

[2] = molecular target: human histone H3 (hH3.3) (Homo sapiens, UniProt P84243); assay: in vitro histone binding assay (microtiter plate, anti-lunasin antibody, absorbance at 450 nm); details: FIG. 3
Text: (§1) The ability of lunasin, purified from soybean white flake in accordance with the presently-disclosed subject matter, to bind the cores histones H3 and H4 was studied. […] To confirm the biological activity of the lunasin purified from soybean white flake using the methods in the subject matter disclosed herein, an in vitro binding assay was used to assess binding to the human H3 and H4 proteins.
(§2) Increasing amounts of histone 3.3 (hH3.3) and histone 4 (hH4) were bound to wells of a […] microtiter plate. Different amounts of either synthetic lunasin or purified lunasin were added to the wells and allowed to bind. The concentration of lunasin bound was determined using a polyclonal antibody against lunasin and a horseradish peroxidase conjugated antibody that recognizes the lunasin antibody. Binding was quantitated by measuring the absorbance at 450 nm.

[3] = molecular target: human histone H4 (hH4) (Homo sapiens, UniProt P62805); assay: as above; details: FIG. 3
Text: as §1, §2

[4] = test system: H1299, non-small cell lung cancer; assay: MTS cell proliferation assay; format: cell-based, human; details: lunasin 30 or 100 μM, complex 10 or 30 μM, 72 hours, FIG. 4
Procedure: (§3) The ability of lunasin, purified from soybean white flake in accordance with the presently-disclosed subject matter, to inhibit the proliferation of specific cancer cell lines was studied. Recent studies have shown that lunasin and lunasin-containing protein preparations can inhibit the proliferation of several cancer cell lines in vitro. To further assess and confirm the biological activity of lunasin and the lunasin-containing complex, cell proliferation assays were conducted with a panel of established cancer cell lines.
(§4) A panel of cancer cell lines was collected from colleagues or purchased from the American Type Culture Collection. Cells were grown in the appropriate medium and treated with PBS (control), lunasin (30 or 100 μM), or the lunasin-containing complex (10 or 30 μM) for 72 hours. Cell viability was assessed using a standard [3-(4,5-dimethylthiazol-2-yl)-5-(3-carboxymethoxy-phenyl)-2-(4-sulfo-phenyl)-2H-tetrazolium (MTS) assay. The data shown (FIG. 4) represent the number of viable cells relative to the PBS-treated controls. The human cell lines tested were: H661, non-small cell lung cancer; H1299, non-small cell lung cancer; SKBR3, adenocarcinoma mammary gland origin; MDA-MB-231, adenocarcinoma, mammary gland origin; MCF-7, adenocarcinoma, mammary gland origin; and HT-29, adenocarcinoma, colon origin.

[5] = test system: H661, non-small cell lung cancer; assay: MTS cell proliferation assay; format: cell-based, human; details: lunasin 30 or 100 μM, complex 10 or 30 μM, 72 hours, FIG. 4
Procedure: as §3, §4

[6] = test system: MDA-MB-231, adenocarcinoma, mammary gland origin; assay: MTS cell proliferation assay; format: cell-based, human; details: lunasin 30 or 100 μM, complex 10 or 30 μM, 72 hours, FIG. 4
Procedure: as §3, §4

[7] = test system: panel of cancer cell lines; assay: MTS cell proliferation assays with a panel of established cancer cell lines; format: cell-based, human; details: 72 hours, FIG. 4
Procedure: as §3, §4

[8] = test system: SKBR3, adenocarcinoma mammary gland origin; assay: MTS cell proliferation assay; format: cell-based, human; details: complex 10 or 30 μM, 72 hours, FIG. 4
Procedure: as §3, §4

[9] = test system: HT-29, adenocarcinoma, colon origin; assay: MTS cell proliferation assay; format: cell-based, human; details: complex 10 or 30 μM, 72 hours, FIG. 4
Procedure: as §3, §4

[10] = test system: MCF-7, adenocarcinoma, mammary gland origin; assay: MTS cell proliferation assay; format: cell-based, human; details: complex 10 or 30 μM, 72 hours, FIG. 4
Procedure: as §3, §4

Row | Molecule | growth of SK-BR-3 cells, lunasin alone ([1]; without curcumin, 2-3 day period) | binding to human histone H3 [2] | binding to human histone H4 [3] | preference of binding, H4 versus H3 [3] | growth/proliferation of H1299 cells (viable cells relative to PBS-treated controls) [4] | growth/proliferation of H661 cells (viable cells relative to PBS-treated controls) [5] | growth/proliferation of MDA-MB-231 cells (viable cells relative to PBS-treated controls) [6] | effect on the antiproliferative effect of curcumin [1] | antiproliferative effectiveness compared with lunasin peptide alone [7] | proliferation of SKBR3 cells (viable cells relative to PBS-treated controls) [8] | proliferation of HT-29 cells (viable cells relative to PBS-treated controls) [9] | proliferation of MCF-7 cells (viable cells relative to PBS-treated controls) [10]
1 | lunasin | unaffected |  |  |  |  |  |  |  |  |  |  | 
2 | soybean-derived lunasin: lunasin polypeptide purified from soybean white flake, 5139.25 Da, corresponding to SEQ ID NO: 2 (additional C-terminal Asn) (SKWQHQQDSCRKQLQGVNLTPCEKHIMEKIQGRGDDDDDDDDDN; Glycine max) |  | affinity greater than that observed using a synthetic lunasin; also recorded: bound to both H4 and H3 in a dose dependent manner | affinity greater than that observed using a synthetic lunasin; also recorded: bound to both H4 and H3 in a dose dependent manner | higher affinity for H4 than for H3 | minor effect | significantly inhibit the growth | minor effect | significantly enhanced the antiproliferative effect of curcumin |  |  |  | 
3 | synthetic lunasin: synthetic lunasin created by peptide synthesis, comprised of SEQ ID NO: 1 [reference compound] |  | binding was lower than observed using the soybean-derived lunasin | binding was lower than observed using the soybean-derived lunasin | more binding to H4 compared to H3 |  |  |  | significantly enhanced the antiproliferative effect of curcumin |  |  |  | 
4 | B1 |  |  |  |  | most sensitive | most sensitive | most sensitive |  | more effective than the lunasin peptide alone | reduced proliferation | reduced proliferation | reduced proliferation
